Test results: PMC8286825 (Biochemical Journal, 2021)
Where two headings read alike, the source gives them in different places.

Experiments:
Assay in all cases: AUC
A6NHR9 [1] = molecular target: A6NHR9
AUC = molecular target: the molecule itself
A6NHR9 [2] = molecular target: A6NHR9; remark: listed apart in the source
A6NHR9 [3] = molecular target: A6NHR9; remark: listed apart in the source
A6NHR9 [4] = molecular target: A6NHR9; remark: listed apart in the source
A6NHR9 [5] = molecular target: A6NHR9; remark: listed apart in the source

B1: UBL-containing SMCHD1 ATPase (residues 25–702) (domain or fragment, human, UniProt A6NHR9 25-702, looked up)
chain: HRTVYLFDRREKESELGDRPLQVGERSDYAGFRACVCQTLGISPEEKFVITTTSRKEITCDNFDETVKDGVTLYLLQSVNQLLLTATKERIDFLPHYDTLVKSGMYEYYASEGQNPLPFALAELIDNSLSATSRNIGVRRIQIKLLFDETQGKPAVAVIDNGRGMTSKQLNNWAVYRLSKFTRQGDFESDHSGYVRPVPVPRSLNSDISYFGVGGKQAVFFVGQSARMISKPADSQDVHELVLSKEDFEKKEKNKEAIYSGYIRNRKPSDSVHITNDDERFLHHLIIEEKEKDSFTAVVITGVQPEHIQYLKNYFHLWTRQLAHIYHYYIHGPKGNEIRTSKEVEPFNNIDIEISMFEKGKVPKIVNLREIQDDMQTLYVNTAADSFEFKAHVEGDGVVEGIIRYHPFLYDRETYPDDPCFPSKLKDEDDEDDCFILEKAARGKRPIFECFWNGRLIPYTSVEDFDWCTPPKKRGLAPIECYNRISGALFTNDKFQVSTNKLTFMDLELKLKDKNTLFTRILNGQEQRMKIDREFALWLKDCHEKYDKQIKFTLFKGVITRPDLPSKKQGPWATYAAIEWDGKIYKAGQLVKTIKTLPLFYGSIVRFFLYGDHDGEVYATGGEVQIAMEPQALYDEVRTVPIAKLDRTVAEKAVKKYVEDEMARLPDRLSVTWPEGDE
Monomer (%) (A6NHR9 [1]): 61.5% | stoichiometry N (AUC): 2 | Monomer (%) (A6NHR9 [2]): 53.4% | Monomer (%) (A6NHR9 [3]): 57.6% | Monomer (%) (A6NHR9 [4]): 88.2% | Monomer (%) (A6NHR9 [5]): 76.8%
